Measurements from PMC8454712 (Biochemical Journal, 2021).

Target: Growth factor receptor-bound protein 2 (Grb2), HepG2 cells (human (endogenous in HepG2), UniProt P62993 1-217)
Assay: co-IP

Growth factor receptor-bound protein 2 (Grb2), HepG2 cells, sequence (P62993 whole entry): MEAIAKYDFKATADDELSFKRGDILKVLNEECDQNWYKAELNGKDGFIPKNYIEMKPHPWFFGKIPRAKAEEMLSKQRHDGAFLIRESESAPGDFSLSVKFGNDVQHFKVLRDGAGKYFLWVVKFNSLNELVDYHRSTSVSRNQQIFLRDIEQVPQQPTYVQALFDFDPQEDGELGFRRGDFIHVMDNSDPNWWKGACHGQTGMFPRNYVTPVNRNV

B1: NADPH oxidase NOX4, HepG2 cells (natural protein, human (endogenous in HepG2), UniProt Q9NPH5 1-578, looked up)
chain: MAVSWRSWLANEGVKHLCLFIWLSMNVLLFWKTFLLYNQGPEYHYLHQMLGLGLCLSRASASVLNLNCSLILLPMCRTLLAYLRGSQKVPSRRTRRLLDKSRTFHITCGVTICIFSGVHVAAHLVNALNFSVNYSEDFVELNAARYRDEDPRKLLFTTVPGLTGVCMVVVLFLMITASTYAIRVSNYDIFWYTHNLFFVFYMLLTLHVSGGLLKYQTNLDTHPPGCISLNRTSSQNISLPEYFSEHFHEPFPEGFSKPAEFTQHKFVKICMEEPRFQANFPQTWLWISGPLCLYCAERLYRYIRSNKPVTIISVMSHPSDVMEIRMVKENFKARPGQYITLHCPSVSALENHPFTLTMCPTETKATFGVHLKIVGDWTERFRDLLLPPSSQDSEILPFIQSRNYPKLYIDGPFGSPFEESLNYEVSLCVAGGIGVTPFASILNTLLDDWKPYKLRRLYFIWVCRDIQSFRWFADLLCMLHNKFWQENRPDYVNIQLYLSQTDGIQKIIGEKYHALNSRLFIGRPRWKLLFDEIAKYNRGKTVGVFCCGPNSLSKTLHKLSNQNNSYGTRFEYNKESFS
fold change of the co-precipitated interaction, T2D condition against control: 1.35 fold
